# Test results reported in patent US20230407326A1, “INDUCIBLE PROMOTER FOR VIRAL VECTOR PRODUCTION” (ASKLEPIOS BIOPHARMACEUTICAL, INC., priority 2020, published 2023).
# B1: RTV-015: synthetic hypoxia-inducible promoter, five HRE1 and synthetic minimal promoter MP1, SEQ ID NO: 1 (nucleic acid)
# DNA: ACGTGCGATGATGCGTAGCTAGTAGTGATGATGCGTAGCTAGTAGTACGTGCGATGATGCGTAGCTAGTAGTGATGATGCGTAGCTAGTAGTACGTGCGATGATGCGTAGCTAGTAGTGATGATGCGTAGCTAGTAGTACGTGCGATGATGCGTAGCTAGTAGTGATGATGCGTAGCTAGTAGTACGTGCTTGGTACCATCCGGGCCGGCCGCTTAAGCGACGCCTATAAAAAATAGGTTGCATGCTAGGCCTAGCGCTGCCAGTCCATCTTCGCTAGCCTGTGCTGCGTCAGTCCAGCGCTGCGCTGCGTAACGGCCGCC
# Assays:
# HEK293-T cells = experiment: Luciferase expression in transiently transfected HEK293-T cells, normoxia vs 24 hrs hypoxia; format: cell-based, human
# Description: HEK293-T are seeded at a density of 20%. Once they reached a confluence between 60 and 80%, the media is changed with DMEM (#21885-025—Thermo Scientific) supplemented with 10% FBS (Gibco, 26140). After 3 hours, the cells were transfected by a transfection mix. The transfection mix is prepared by adding DNA (2 μg per 6 well plate) and PEI 25 kDA (#23966-1-Polyscience) in a ratio of 1:3 in sterile DPBS (#14190169—ThermoFisher Scientific). After mixing, the transfection mix is incubated at room temperature for 30 minutes and then added directly to the cells. After 16 to 18 h post transfection, the media is changed to DMEM+2% FBS. […]
# After transfection the cells were incubated for 24 hrs in normoxic conditions (20% oxygen). Induction of the promoters was assessed by using luciferase activity after 24 hrs in normoxia or hypoxia (5% oxygen, 10% carbon dioxide and 85% nitrogen). […]
# (§1) Luciferase activity was measured using LARII (Dual Luciferase Reporter 1000 assay system, Promega, E1980).
# Media was removed from the cells at the respective time point (0, 3, 5, 24 hrs after induction). […] 10 μl of supernatant was pipetted into white 96-well plate and luminescence measured by addition of 50 μl of LARII substrate.
# β-galactosidase activity was measured as per manufacturer's instructions (Mammalian βGalactosidase Assay Kit, 75707/75710, Thermo Scientific) using 25 μl of lysate. […]
# HEK293-F cells = experiment: Luciferase expression from hypoxia-inducible promoters in transiently transfected HEK293-F cells under hypoxia; format: cell-based, human; details: hypoxia 5% oxygen, 3, 5 and 24 hrs
# Description: 40 ml of cells were grown in a 250 ml vented Erlenmeyer flask (Sigma-Aldrich CLS431144) at 37° C., 20% O2, 8% CO2 with agitation at 100 rpm. Cells were seeded as described in the manufacturer's instructions (300,000 cells/ml). HEK293-F were obtained from Thermofisher, R79007.
# (§2) One day before transfection, the cells were counted using a haemocytometer and split to 500,000 cells/ml.
# On the day of transfection, the cells are seeded to 1,000,000 cells/ml in 500 μl of appropriate medium (Freestyle 293 expression medium, 12338002) in a 24 well plate. 0.625 μg of DNA per well was then added to 10 μl of OptiMem medium (Thermofisher; 11058021) and incubated for 5 minutes at room temperature. […]
# After transfection the cells were incubated for 24 hrs in normoxia conditions (20% oxygen) before being switched to a gas mix of 5% oxygen, 10% carbon dioxide and 85% nitrogen (hypoxia). […] Induction of the promoters was assessed by using luciferase activity after 3, 5 and 24 hrs in hypoxia.
# as §1
# Media was removed from the cells at the respective time point (0, 3, 5, 24 hrs after induction). […] 10 μl of supernatant was pipetted into white 96-well plate and luminescence measured by addition of 50 μl of LARII substrate. […]
# CHO-GS cells = experiment: Luciferase expression in transiently transfected CHO-GS suspension cells, normoxia vs 24 hrs hypoxia; format: cell-based, Chinese hamster; details: CHO_GS suspension cell line
# Description: 40 ml of cells were grown in a 250 ml vented Erlenmeyer flask (Sigma-Aldrich CLS431144) at 37° C., 20% O2, 8% CO2 with agitation at 100 rpm. Cells were seeded as at 300,000 cells/ml.
# as §2
# On the day of transfection, the cells are seeded to 1,000,000 cells/ml in 500 μl of appropriate medium (Thermofisher, CD-CHO 10743029) in a 24 well plate. 0.625 μg of DNA per well was then added to 10 μl of OptiMem medium (Thermofisher; 11058021) and incubated for 5 minutes at room temperature.
# Concurrently, 0.625 μl of Freestyle Max reagent (Thermofisher, 16447100) was made up to 10 μl by addition of OptiMem and incubated for 5 minutes at room temperature. After this incubation, both mixes were added to the same tube and incubated at room temperature for 25-30 minutes. The DNA/Max reagent mix (20 μl/well) was then added directly to the cells and the cells incubated at 37° C., 8% CO2 with agitation at 100 rpm. […]
# After transfection the cells were incubated for 24 hrs in normoxic conditions (20% oxygen). Induction of the promoters was assessed by using luciferase activity after 24 hrs in normoxia or hypoxia (5% oxygen, 10% carbon dioxide and 85% nitrogen). […] Luciferase activity was measured as described above.
molecule,measurement,setting,value
B1,luciferase expression in normoxia and after 24 hours in hypoxia,HEK293-T cells,almost no luciferase activity in normoxia but is induced after 24 hours in hypoxia
same,promoter activity (luciferase) relative to the other promoters,HEK293-F cells,weakest
same,luciferase expression in normoxia and after 24 hours in hypoxia,CHO-GS cells,almost no luciferase activity in normoxia but is induced after 24 hours in hypoxia
